Test results reported in publication PMC7229842, “Molecular basis of the multifaceted functions of human leucyl-tRNA synthetase in protein synthesis and beyond” (Nucleic Acids Research, 2020).

Assays:
[1] = molecular target: T1, Human cytosolic isoleucyl-tRNA synthetase (human, UniProt P41252 1-1262); test: pull-down; in vitro assembly of the MSC as in a2 but lacking hcLRS; anti-Flag beads on MRS-Flag; details: both partners purified
T1 construct: human cytosolic isoleucyl-tRNA synthetase (IRS), gene cloned from the cDNA of HEK293 cells; also called IRS; source: recombinant from a modified pET28b, purified (Ni-NTA, gel filtration)
T1 sequence (looked up): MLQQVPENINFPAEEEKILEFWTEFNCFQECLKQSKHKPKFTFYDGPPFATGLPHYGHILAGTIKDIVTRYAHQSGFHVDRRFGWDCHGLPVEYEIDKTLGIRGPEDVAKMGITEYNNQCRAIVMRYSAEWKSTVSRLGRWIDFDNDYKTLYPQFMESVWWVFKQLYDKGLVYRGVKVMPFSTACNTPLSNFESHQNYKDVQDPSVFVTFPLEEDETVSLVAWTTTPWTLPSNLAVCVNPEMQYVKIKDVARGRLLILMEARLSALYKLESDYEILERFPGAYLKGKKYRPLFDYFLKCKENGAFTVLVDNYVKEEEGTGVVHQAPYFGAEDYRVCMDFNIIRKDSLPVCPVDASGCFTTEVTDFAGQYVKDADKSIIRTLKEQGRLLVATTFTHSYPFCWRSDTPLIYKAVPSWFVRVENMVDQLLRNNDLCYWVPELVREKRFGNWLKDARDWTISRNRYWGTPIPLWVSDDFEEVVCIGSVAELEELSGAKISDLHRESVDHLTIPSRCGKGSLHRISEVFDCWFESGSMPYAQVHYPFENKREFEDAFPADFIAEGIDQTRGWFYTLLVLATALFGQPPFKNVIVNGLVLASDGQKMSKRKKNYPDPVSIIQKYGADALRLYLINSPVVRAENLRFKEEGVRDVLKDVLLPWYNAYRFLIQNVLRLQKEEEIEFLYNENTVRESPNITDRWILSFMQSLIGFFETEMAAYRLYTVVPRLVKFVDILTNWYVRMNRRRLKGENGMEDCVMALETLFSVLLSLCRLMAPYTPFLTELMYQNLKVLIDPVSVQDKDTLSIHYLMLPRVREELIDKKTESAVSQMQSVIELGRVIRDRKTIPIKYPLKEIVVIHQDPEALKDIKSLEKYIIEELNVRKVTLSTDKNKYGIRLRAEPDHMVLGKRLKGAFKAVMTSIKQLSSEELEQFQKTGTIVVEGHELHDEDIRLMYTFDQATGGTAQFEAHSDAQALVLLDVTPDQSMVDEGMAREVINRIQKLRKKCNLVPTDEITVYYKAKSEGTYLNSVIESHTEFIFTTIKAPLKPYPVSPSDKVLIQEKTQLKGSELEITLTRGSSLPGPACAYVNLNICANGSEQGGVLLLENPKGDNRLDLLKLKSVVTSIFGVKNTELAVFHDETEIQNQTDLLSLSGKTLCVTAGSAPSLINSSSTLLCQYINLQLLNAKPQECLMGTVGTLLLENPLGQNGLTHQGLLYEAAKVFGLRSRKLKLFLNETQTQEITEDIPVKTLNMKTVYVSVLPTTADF

[2] = molecular target: T2, Human cytosolic glutamyl-prolyl-tRNA synthetase (human, UniProt P07814 1-1512); test: pull-down; in vitro assembly of the MSC as in a2 but lacking IRS; anti-Flag beads on MRS-Flag; details: both partners purified
T2 construct: human cytosolic EPRS, gene cloned from the cDNA of HEK293 cells; also called EPRS; source: recombinant from a modified pET28b, purified (Ni-NTA, gel filtration)
T2 sequence (P07814 whole entry): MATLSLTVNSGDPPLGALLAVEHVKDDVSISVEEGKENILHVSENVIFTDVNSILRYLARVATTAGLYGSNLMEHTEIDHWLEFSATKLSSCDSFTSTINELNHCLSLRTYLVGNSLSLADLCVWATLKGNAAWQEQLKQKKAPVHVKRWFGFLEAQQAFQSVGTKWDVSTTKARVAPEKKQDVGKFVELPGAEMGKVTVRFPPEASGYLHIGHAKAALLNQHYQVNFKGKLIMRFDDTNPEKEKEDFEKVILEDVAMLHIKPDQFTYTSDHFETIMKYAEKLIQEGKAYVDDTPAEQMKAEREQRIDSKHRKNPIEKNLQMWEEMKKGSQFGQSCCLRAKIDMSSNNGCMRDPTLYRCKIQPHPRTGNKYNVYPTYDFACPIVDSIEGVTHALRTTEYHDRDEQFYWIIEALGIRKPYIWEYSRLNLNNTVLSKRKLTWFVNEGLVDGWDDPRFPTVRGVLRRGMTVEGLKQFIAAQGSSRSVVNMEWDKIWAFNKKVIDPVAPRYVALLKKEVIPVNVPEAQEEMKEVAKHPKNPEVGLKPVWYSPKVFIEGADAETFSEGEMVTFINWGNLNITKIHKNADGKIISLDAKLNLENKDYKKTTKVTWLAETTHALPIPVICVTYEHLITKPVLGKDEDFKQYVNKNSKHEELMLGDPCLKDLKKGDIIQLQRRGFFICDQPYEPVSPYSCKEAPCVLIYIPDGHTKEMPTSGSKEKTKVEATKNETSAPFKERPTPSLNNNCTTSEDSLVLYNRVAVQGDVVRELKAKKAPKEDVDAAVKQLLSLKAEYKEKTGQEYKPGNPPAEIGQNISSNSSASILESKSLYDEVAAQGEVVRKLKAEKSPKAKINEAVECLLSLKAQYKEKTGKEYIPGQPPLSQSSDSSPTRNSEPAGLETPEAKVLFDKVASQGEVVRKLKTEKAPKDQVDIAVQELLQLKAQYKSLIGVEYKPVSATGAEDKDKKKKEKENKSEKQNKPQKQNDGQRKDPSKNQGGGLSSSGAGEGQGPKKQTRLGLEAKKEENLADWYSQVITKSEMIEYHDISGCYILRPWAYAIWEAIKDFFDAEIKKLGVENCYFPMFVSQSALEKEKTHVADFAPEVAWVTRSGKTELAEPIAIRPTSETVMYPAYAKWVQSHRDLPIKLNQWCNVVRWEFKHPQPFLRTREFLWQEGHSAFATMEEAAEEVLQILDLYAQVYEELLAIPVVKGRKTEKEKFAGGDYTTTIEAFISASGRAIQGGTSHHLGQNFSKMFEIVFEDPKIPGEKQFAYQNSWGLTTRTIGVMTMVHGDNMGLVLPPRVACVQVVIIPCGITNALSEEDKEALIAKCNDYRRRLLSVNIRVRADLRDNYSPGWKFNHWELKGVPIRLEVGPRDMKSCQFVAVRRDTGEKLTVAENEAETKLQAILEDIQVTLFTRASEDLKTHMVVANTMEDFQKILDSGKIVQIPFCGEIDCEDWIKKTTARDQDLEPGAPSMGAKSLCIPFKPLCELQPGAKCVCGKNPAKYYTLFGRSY

binding result [1]: binds | binding result [2]: binds
B1: MRS-AIMP3 complex (human cytosolic methionyl-tRNA synthetase co-expressed with AIMP3) (complex)
chain 1: MRLFVSDGVPGCLPVLAAAGRARGRAEVLISTVGPEDCVVPFLTRPKVPVLQLDSGNYLFSTSAICRYFFLLSGWEQDDLTNQWLEWEATELQPALSAALYYLVVQGKKGEDVLGSVRRALTHIDHSLSRQNCPFLAGETESLADIVLWGALYPLLQDPAYLPEELSALHSWFQTLSTQEPCQRAAETVLKQQGVLALRPYLQKQPQPSPAEGRAVTNEPEEEELATLSEEEIAMAVTAWEKGLESLPPLRPQQNPVLPVAGERNVLITSALPYVNNVPHLGNIIGCVLSADVFARYSRLRQWNTLYLCGTDEYGTATETKALEEGLTPQEICDKYHIIHADIYRWFNISFDIFGRTTTPQQTKITQDIFQQLLKRGFVLQDTVEQLRCEHCARFLADRFVEGVCPFCGYEEARGDQCDKCGKLINAVELKKPQCKVCRSCPVVQSSQHLFLDLPKLEKRLEEWLGRTLPGSDWTPNAQFITRSWLRDGLKPRCITRDLKWGTPVPLEGFEDKVFYVWFDATIGYLSITANYTDQWERWWKNPEQVDLYQFMAKDNVPFHSLVFPCSALGAEDNYTLVSHLIATEYLNYEDGKFSKSRGVGVFGDMAQDTGIPADIWRFYLLYIRPEGQDSAFSWTDLLLKNNSELLNNLGNFINRAGMFVSKFFGGYVPEMVLTPDDQRLLAHVTLELQHYHQLLEKVRIRDALRSILTISRHGNQYIQVNEPWKRIKGSEADRQRAGTVTGLAVNIAALLSVMLQPYMPTVSATIQAQLQLPPPACSILLTNFLCTLPAGHQIGTVSPLFQKLENDQIESLRQRFGGGQAKTSPKPAVVETVTTAKPQQIQALMDEVTKQGNIVRELKAQKADKNEVAAEVAKLLDLKKQLAVAEGKPPEAPKGKKKK
chain 2: MAAAAELSLLEKSLGLSKGNKYSAQGERQIPVLQTNNGPSLTGLTTIAAHLVKQANKEYLLGSTAEEKAIVQQWLEYRVTQVDGHSSKNDIHTLLKDLNSYLEDKVYLTGYNFTLADILLYYGLHRFIVDLTVQEKEKYLNVSRWFCHIQHYPGIRQHLSSVVFIKNRLYTNSH
notes: human cytosolic methionyl-tRNA synthetase (MRS), gene cloned from the cDNA of HEK293 cells; Only MRS carries the Flag tag; It is the bait of the anti-Flag pull-down of the assembled MSC; source: co-expressed from a modified pETDuet-1, purified (Ni-NTA, gel filtration); not shown: Flag, C-terminal, kept
